Measured values published in patent US20250163122A1, “COMPOSITIONS AND METHODS FOR TREATING AIRWAY MUCUS DYSFUNCTION” (BOARD OF REGENTS, THE UNIVERSITY OF TEXAS SYSTEM, priority 2022, published 2025).
Where a SMILES comes first, the peptide text is derived from it. Bridges are numbered along the chain shown (N, C = ends). [ ]: non-standard residue; d: D form. S5 = C=CCCC[C@](C)(N)C(=O)O

Biological target: T1, airway SNAREs only (Homo sapiens, UniProt O00161+Q13277+Q9BV40, C112S/C79S/C80S/C83S/C85S/C87S)
T1 sequence (Q9BV40 1-100): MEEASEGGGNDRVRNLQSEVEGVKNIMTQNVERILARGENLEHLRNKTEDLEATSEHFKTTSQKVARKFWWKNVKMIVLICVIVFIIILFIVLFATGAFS
T1 sequence (Q13277 1-289): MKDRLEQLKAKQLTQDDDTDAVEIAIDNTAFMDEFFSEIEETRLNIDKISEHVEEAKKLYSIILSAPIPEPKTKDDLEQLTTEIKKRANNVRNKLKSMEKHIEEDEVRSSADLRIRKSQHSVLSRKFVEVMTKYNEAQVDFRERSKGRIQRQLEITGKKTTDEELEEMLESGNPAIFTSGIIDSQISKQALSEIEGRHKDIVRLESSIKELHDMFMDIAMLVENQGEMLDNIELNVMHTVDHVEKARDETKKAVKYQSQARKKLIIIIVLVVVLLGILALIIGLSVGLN
T1 sequence (O00161 1-211 C79S/C80S/C83S/C85S/C87S/C112S): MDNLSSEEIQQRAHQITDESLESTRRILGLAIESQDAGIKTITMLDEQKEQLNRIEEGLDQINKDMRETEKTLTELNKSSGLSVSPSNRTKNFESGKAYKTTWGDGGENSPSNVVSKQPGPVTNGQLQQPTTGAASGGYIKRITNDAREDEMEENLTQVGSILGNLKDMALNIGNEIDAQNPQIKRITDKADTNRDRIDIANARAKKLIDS
Experiment: Single vesicle content mixing assay, airway SNAREs only (VAMP8 vesicles)
Type: biochemical
Conditions: 10 μM peptide; raw count
Source text: For single vesicle content mixing assay, the lipid composition of the SV, SG, VAMP2, or VAMP8 vesicles was phosphatidylcholine (PC) (48%), phosphatidylethanolamine (PE) (20%), phosphatidylserine (PS) (12%), and cholesterol (20%); for both the neuronal and airway PM vesicles the lipid composition was Brain Total Lipid Extract supplemented 3.5 mol % PIP2, and 0.1 mol % biotinylated phosphatidylethanolamine (PE). The reconstitution method for neuronal PM and SV vesicles was described in detail previously (see Lai et al., 2017; Kyoung et al., 2011; and Lai et al., 2014). The same methods were used for airway PM, SG, VAMP2, and VAMP8 vesicles. […] A 3-5 fold excess of SNAP-25A or SNAP-23 (with respect to Stx1A or Stx3) and 3.5 mol % PIP2 were added to the protein-lipid mixture for neuronal or airway PM vesicles. […] For the preparation of SV, SG, VAMP2, or VAMP8 vesicles for single vesicle content mixing assay, 50 mM sulforhodamine B (Thermo Fisher Scientific) was added to the protein-lipid mixture. The vesicles subsequently formed during size exclusion chromatography using a Sepharose CL-4B column, packed under near constant pressure by gravity with a peristaltic pump (GE Healthcare) in a 5.5 ml column with a 5 ml bed volume that was equilibrated with buffer V (20 mM HEPES, pH 7.4, 90 mM NaCl) supplemented with 20 μM EGTA and 0.1% 2-mercaptoethanol. The eluent was subjected to dialysis into 21 of detergent-free buffer V supplemented with 20 μM EGTA, 0.1% 2-mercaptoethanol, 5 g of Bio-beads SM2 (Bio-Rad) and 0.8 g/L Chelex 100 resin (Bio-Rad). After 4 hours, the buffer was exchanged with 21 of fresh buffer V supplemented with 20 μM EGTA, 0.1% 2-mercaptoethanol and Bio-beads, and the dialysis continued for another 12 h (overnight). […] For ensemble lipid mixing assay, the reconstitution method is the same as that for the single vesicle content mixing assay, except that 50 mM sulforhodamine B was omitted for all the steps. Single vesicle content mixing experiments. All single vesicle fusion and single molecule experiments were performed on a prism-type total internal reflection fluorescence (TIRF) microscope using 532 nm (green) laser (CrystaLaser) excitation. Two observation channels were created by a 640 nm single-edge dichroic […]36, Shemrock): one channel was used for the fluorescence emission intensity of the content dyes and the other channel for that of the Cy5 dye that are part of the injected Ca^2+-solution. The two channels were recorded on two adjacent rectangular areas (45×90 m^2) of a charge-coupled device (CCD) camera (iXon+DV […], Andor Technology). The imaging data were recorded with the […] software developed by Taekjip Ha, Johns Hopkins University, Baltimore. Flow chambers were assembled by creating a “sandwich” consisting of a quartz slide and a glass coverslip that were both coated with polyethylene glycol (PEG) molecules consisting 0.1% (w/v) biotinylated-PEG except when stated otherwise, and using double-sided tape to create up to five flow-chambers. The single vesicle content mixing assay described in Lai et al. (2014) was used to monitor vesicle-vesicle association, Ca^2+-independent, and Ca^2+-triggered fusion. The surface of the quartz slides was passivated by coating the surface with polyethylene glycol (PEG) molecules which alleviated non-specific binding of vesicles. […]

| Compound | Ca2+ independent fusion events |
| --- | --- |
| Ac-SKDA(S5)IRT(S5)VM(S5)DEQ(S5)EQL-amide (Ac-SKDA[S5]IRT[S5]VM[S5]DEQ[S5]EQL-NH2; staple 12-16, 5-9; SMILES CC[C@H](C)[C@@H]1NC(=O)[C@@](C)(NC(=O)[C@H](C)NC(=O)[C@H](CC(=O)O)NC(=O)[C@H](CCCCN)NC(=O)[C@H](CO)NC(C)=O)CCCC=CCCC[C@@](C)(C(=O)N[C@H](C(=O)N[C@@H](CCSC)C(=O)N[C@@]2(C)CCCC=CCCC[C@@](C)(C(=O)N[C@@H](CCC(=O)O)C(=O)N[C@@H](CCC(N)=O)C(=O)N[C@@H](CC(C)C)C(N)=O)NC(=O)[C@H](CCC(N)=O)NC(=O)[C@H](CCC(=O)O)NC(=O)[C@H](CC(=O)O)NC2=O)C(C)C)NC(=O)[C@H]([C@@H](C)O)NC(=O)[C@H](CCCNC(=N)N)NC1=O) [SP4] | 16 |
| Ac-SKD(S5)GIR(S5)LV(S5)LDE(S5)GEQL-amide (Ac-SKD[S5]GIR[S5]LV[S5]LDE[S5]GEQL-NH2; staple 11-15, 4-8; SMILES CC[C@H](C)[C@@H]1NC(=O)CNC(=O)[C@@](C)(NC(=O)[C@H](CC(=O)O)NC(=O)[C@H](CCCCN)NC(=O)[C@H](CO)NC(C)=O)CCCC=CCCC[C@@](C)(C(=O)N[C@@H](CC(C)C)C(=O)N[C@H](C(=O)N[C@@]2(C)CCCC=CCCC[C@@](C)(C(=O)NCC(=O)N[C@@H](CCC(=O)O)C(=O)N[C@@H](CCC(N)=O)C(=O)N[C@@H](CC(C)C)C(N)=O)NC(=O)[C@H](CCC(=O)O)NC(=O)[C@H](CC(=O)O)NC(=O)[C@H](CC(C)C)NC2=O)C(C)C)NC(=O)[C@H](CCCNC(=N)N)NC1=O) [SP10] | 18 |
| CC[C@H](C)[C@H](NC(=O)[C@]1(C)CCCC=CCCC[C@](C)(NC(=O)[C@H](CCC(=O)O)NC(=O)[C@H](CCC(=O)O)NC(C)=O)C(=O)N[C@@H](CCCCN)C(=O)N[C@@H](CC(=O)O)C(=O)N[C@@H](C)C(=O)N1)C(=O)N[C@@H](CCCNC(=N)N)C(=O)N[C@@]1(C)CCCC=CCCC[C@@](C)(C(=O)N[C@@H](CC(=O)O)C(=O)N[C@@H](CCC(=O)O)C(=O)N[C@@H](CCC(N)=O)C(=O)N[C@@H](CS)C(N)=O)NC(=O)[C@H](CCSC)NC(=O)[C@H](C(C)C)NC(=O)[C@H](CC(C)C)NC1=O [SP9, Ac-EE(S5)KDA(S5)IR(S5)LVM(S5)DEQC-amide] (Ac-EE[S5]KDA[S5]IR[S5]LVM[S5]DEQC-NH2; staple 3-7, 10-14) | 22 |
| Ac-SKD(S5)GIR(S5)LVMLDE(S5)GEQ(S5)DR-amide (Ac-SKD[S5]GIR[S5]LVMLDE[S5]GEQ[S5]DR-NH2; staple 15-19, 4-8; SMILES CC[C@H](C)[C@@H]1NC(=O)CNC(=O)[C@@](C)(NC(=O)[C@H](CC(=O)O)NC(=O)[C@H](CCCCN)NC(=O)[C@H](CO)NC(C)=O)CCCC=CCCC[C@@](C)(C(=O)N[C@@H](CC(C)C)C(=O)N[C@H](C(=O)N[C@@H](CCSC)C(=O)N[C@@H](CC(C)C)C(=O)N[C@@H](CC(=O)O)C(=O)N[C@@H](CCC(=O)O)C(=O)N[C@@]2(C)CCCC=CCCC[C@@](C)(C(=O)N[C@@H](CC(=O)O)C(=O)N[C@@H](CCCNC(=N)N)C(N)=O)NC(=O)[C@H](CCC(N)=O)NC(=O)[C@H](CCC(=O)O)NC(=O)CNC2=O)C(C)C)NC(=O)[C@H](CCCNC(=N)N)NC1=O) [SP1] | 26 |
| EESKDAGIRTLVMLDEQGEQLD [Peptide P0, non-stapled SNAP-25A fragment used as a control, reference compound] | 38 |
